Molecular target: VSV-7 peptide (Vesicular stomatitis virus)

B1: soluble H-2K^b (K^bsol), empty heterodimer of truncated K^b heavy chain and murine β-2 microglobulin (other)
alpha: GPHSLRYFVTAVSRPGLGEPRYMEVGYVDDTEFVRFDSDAENPRYEPRARWMEQEGPEYWERETQKAKGNEQSFRVDLRTLLGYYNQSKGGSHTIQVISGCEVGSDGRLLRGYQQYAYDGCDYIALNEDLKTWTAADMAALITKHKWEQAGEAERLRAYLEGTCVEWLRRYLKNGNATLLRTDSPKAHVTHHSRPEDKVTLRCWALGFYPADITLTWQLNGEELIQDMELVETRPAGDGTFQKWASVVVPLGKEQYYTCHVYHQGLPEPLTLRW
beta: IQKTPQIQVYSRHPPENGKPNILNCYVTQFHPPHIEIQMLKNGKKIPKVEMSDMSFSKDWSFYILAHTEFTPTETDTYACRVKHASMAEPKTVYWDRDM
  Kd: 53 nM

Source: patent publication US6461867
